We go through two molecules from publication PMC9907207 (2023).

This test has as its target SARS-CoV-2 RBD (residues 319-541), ancestral strain (SARS-CoV-2, UniProt P0DTC2 319-541). Briefly: BLI. (In BLI a coated tip is dipped into the sample, and binding shifts an interference pattern.)

B1: GAR12, human IgG1 monoclonal antibody (antibody, V domains shown)
VH: EVQLVQSGGGLVQPGGSLRLSCAASGFTFSSYAMSWVRQAPGKGLEWVLSISGSGGSTYYADSVKGRFTISIDNSKKTVYLQMNSLRAEDTAVYYCAKSGEQQLVQAEYFHHWGQGTLVTVSS
VL: DIQMTQSPSTLSASVGDRVTITCRASQSIGRWLAWYQQKPGKAPKLLIYDASSLESGVPSRFSGSGFGTEFTLTISSLQPDDFATYYCQQCDSLLTFGGGTKLEIK
modifications: biotin (EZ-Link NHS-PEG4-Biotin, 10:1) where loaded on the sensor
Turning to B1, the Kd (usually the concentration at which binding is half-saturated) was 0.2 nM.

B2: GAR03, human IgG1 monoclonal antibody (antibody, V domains shown)
VH: QVQLVQSGAEVKKPGASVKVSCKASGYTFSSYDINWVRQAPGQGLEWMGWMSPNSGNTGYAQKFQGRVTMTRSTSMSTAYMELSSLRSEDTAVYFCARMSSSLTNYLDYWGQGTLVTVSS
VL: SYVLTQPPSVAVAPGQTARIRCGENDIGSKNVHWYQQKSGQAPVLVVYDDSDRPSGIPERFSGSNSGNTATLTISRVEAGDEADYYCQVWDSTGDHPDVVFGGGTKLTVL
modifications: biotin (EZ-Link NHS-PEG4-Biotin, 10:1) where loaded on the sensor
The molecule B2 gave a Kd of 0.31 nM.
